Measured values from paper PMC6415886.

Target: T1, INTP5 (biosimilar pegfilgrastim, N-terminally pegylated filgrastim produced by Intas) (human), P09919
T1 chain: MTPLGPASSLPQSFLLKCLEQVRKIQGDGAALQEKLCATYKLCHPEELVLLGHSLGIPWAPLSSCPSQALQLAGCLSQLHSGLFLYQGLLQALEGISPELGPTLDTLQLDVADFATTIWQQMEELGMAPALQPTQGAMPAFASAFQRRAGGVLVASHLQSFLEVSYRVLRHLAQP
Assay: SEC-MALS; vortexed (stress aggregated) INTP5; TSKgel G3000 SWXL, phosphate buffer with 100 mM NaCl and 10% ethanol, 25°C; 36 μg loaded
Details: remark: other sources report otherwise

- stoichiometry N: 2
B1: INTP5 (biosimilar pegfilgrastim, N-terminally pegylated filgrastim produced by Intas), P09919-2 31-204 (ligand)
chain: MTPLGPASSLPQSFLLKCLEQVRKIQGDGAALQEKLCATYKLCHPEELVLLGHSLGIPWAPLSSCPSQALQLAGCLSQLHSGLFLYQGLLQALEGISPELGPTLDTLQLDVADFATTIWQQMEELGMAPALQPTQGAMPAFASAFQRRAGGVLVASHLQSFLEVSYRVLRHLAQP
modifications: here or on the partner: 20 kDa monomethoxypolyethylene glycol (mPEG) on the N-terminal amino group of Met1, secondary amine linkage; 20 kDa monomethoxypolyethylene glycol (mPEG) on the N-terminal amino group of Met1, secondary amine linkage
